The assay concerns the target anaphase promoting complex subunit 1 (APC1) (Homo sapiens) (UniProt Q9H1A4). Kind of assay: cell-based or functional assay.

Chain of anaphase promoting complex subunit 1 (APC1) (Homo sapiens) (Q9H1A4 whole entry, one chain of several): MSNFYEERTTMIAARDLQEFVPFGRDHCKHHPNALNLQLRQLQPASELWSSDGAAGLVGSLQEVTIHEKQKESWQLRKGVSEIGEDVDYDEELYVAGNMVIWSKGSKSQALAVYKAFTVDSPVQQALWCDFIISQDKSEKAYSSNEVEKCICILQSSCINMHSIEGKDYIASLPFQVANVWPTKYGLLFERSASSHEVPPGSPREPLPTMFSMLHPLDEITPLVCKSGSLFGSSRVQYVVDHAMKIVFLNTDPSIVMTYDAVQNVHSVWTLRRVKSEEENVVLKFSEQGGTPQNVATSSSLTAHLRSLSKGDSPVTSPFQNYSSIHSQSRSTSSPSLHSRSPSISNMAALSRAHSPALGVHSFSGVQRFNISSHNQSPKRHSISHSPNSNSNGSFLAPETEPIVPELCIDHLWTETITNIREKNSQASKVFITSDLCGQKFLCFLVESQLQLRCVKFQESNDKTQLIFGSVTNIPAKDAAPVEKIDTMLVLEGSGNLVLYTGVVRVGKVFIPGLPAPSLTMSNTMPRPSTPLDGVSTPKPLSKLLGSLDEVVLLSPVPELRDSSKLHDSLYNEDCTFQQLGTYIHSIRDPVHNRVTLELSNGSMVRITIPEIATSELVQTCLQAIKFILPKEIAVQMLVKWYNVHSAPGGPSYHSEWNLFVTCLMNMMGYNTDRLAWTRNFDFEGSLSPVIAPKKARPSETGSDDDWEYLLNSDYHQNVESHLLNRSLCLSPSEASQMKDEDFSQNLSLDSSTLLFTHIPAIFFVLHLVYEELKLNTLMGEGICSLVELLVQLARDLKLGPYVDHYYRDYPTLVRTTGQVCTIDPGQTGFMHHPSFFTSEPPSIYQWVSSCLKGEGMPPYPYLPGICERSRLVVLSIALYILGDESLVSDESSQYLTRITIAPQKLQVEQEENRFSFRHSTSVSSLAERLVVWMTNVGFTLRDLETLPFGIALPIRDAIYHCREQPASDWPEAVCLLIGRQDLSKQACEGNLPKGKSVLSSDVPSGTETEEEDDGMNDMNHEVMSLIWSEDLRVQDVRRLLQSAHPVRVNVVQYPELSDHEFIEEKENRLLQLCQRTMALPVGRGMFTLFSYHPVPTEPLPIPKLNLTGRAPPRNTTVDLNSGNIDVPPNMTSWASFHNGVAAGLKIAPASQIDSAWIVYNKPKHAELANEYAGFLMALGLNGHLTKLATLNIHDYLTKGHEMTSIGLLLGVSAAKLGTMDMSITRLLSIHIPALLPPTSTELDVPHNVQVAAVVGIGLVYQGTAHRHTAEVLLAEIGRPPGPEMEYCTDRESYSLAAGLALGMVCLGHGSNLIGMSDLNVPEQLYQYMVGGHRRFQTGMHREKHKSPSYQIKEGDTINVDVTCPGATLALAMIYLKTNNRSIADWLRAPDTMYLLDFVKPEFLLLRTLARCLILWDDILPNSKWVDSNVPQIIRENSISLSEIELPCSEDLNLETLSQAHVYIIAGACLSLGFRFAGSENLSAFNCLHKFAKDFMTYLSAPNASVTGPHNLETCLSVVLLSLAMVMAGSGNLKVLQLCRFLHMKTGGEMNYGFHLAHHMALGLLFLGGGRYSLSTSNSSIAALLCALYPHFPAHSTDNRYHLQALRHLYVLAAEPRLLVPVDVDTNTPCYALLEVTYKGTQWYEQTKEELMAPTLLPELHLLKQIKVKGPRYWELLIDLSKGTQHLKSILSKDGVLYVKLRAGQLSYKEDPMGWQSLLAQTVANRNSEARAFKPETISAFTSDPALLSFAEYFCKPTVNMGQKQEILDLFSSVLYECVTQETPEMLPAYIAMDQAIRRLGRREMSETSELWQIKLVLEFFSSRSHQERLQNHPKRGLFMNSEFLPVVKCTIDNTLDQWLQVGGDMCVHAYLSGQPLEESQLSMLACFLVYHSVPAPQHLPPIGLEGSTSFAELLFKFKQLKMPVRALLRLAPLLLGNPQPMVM

“GFP-Ap(42-121) (from UniProt Q99152 42-121)” showed a percent of wild-type killing activity (apoptotic morphology, H1299 cells) (percent of wild-type killing activity) of 67.

As to “GFP-Ap(82-121) (from UniProt Q99152 82-121)”, the percent of wild-type killing activity (apoptotic morphology, H1299 cells) (percent of wild-type killing activity) was 55.

(Values after US20060057652A1.)
